Article PMC7666153, “The phosphorylated regulator of chemotaxis is crucial throughout biofilm biogenesis in Shewanella oneidensis” (NPJ Biofilms and Microbiomes, 2020)

Target: the molecule itself
Experiment: cross-linking; Strep-tagged CheY3 (11.8 µM) and His-tagged SO4207S (3.1 µM), together or separately, 5 mM EDC, 1 h at room temperature, 10 mM cacodylate buffer; SDS-PAGE and blot with HisProbe-HRP

B1: His-tagged SO4207S (soluble cytoplasmic domain of SO4207, D388 to N625) (domain or fragment, S. oneidensis, UniProt Q8E9Q9 388-625, looked up)
chain: DERKAKQRIQQEALKQAQKIRSAREEALKVEAETNERLEQKVQERTLELEITLRELHEVNQKLTEQSTIDSLTGVKNRSAFDKRLLAESRISRRQETPIALLMLDIDRFKSINDQFGHLAGDQALKLIAQTLQQHLKRPTDLVSRFGGEEFAIILPNTTADGALQVAESIRDTVSCIGLTWEGKPIPLTVSIGVSADVIMNEQHSTELLEQADKALYQAKNSGRNQVKLYAPAQTEPN
notes: diguanylate cyclase SO4207 of Shewanella oneidensis, cytoplasmic domain D388 to N625, devoid of the transmembrane segments; Cloned into pET21b; printed mass 30 kDa; also called pET-SO4207S; source: E. coli BL21 (DE3), purified (HisTrapFF); not shown: 6xHis-tag, C-terminal, kept
B1 was tested. Which “stoichiometry N” value did it give?
The value was 2.
